# According to patent US8178091B2, “Compositions and methods for the treatment of respiratory disorders” (University of Washington, priority 2007, dated 2012):
# “Also recorded” adds a separate entry of the source.
# Assays:
# epithelial cells (A549) = experiment: Fas-induced apoptosis, epithelial cells; type: cell-based, human; details: A549, antibody 136 μg/ml with Fas ligand
# Experimental: A: Normal human lung fibroblast or distal lung epithelial cells were serum-starved overnight and then incubated with indicated concentration of IGF-1R antibody or IGFBP-3 overnight. B: A549 cells were serum-starved and incubated with IGF-1R antibody (136 μg/ml) with or without the indicated concentration of Fas ligand. Apoptosis was measured by Cell Death ELISA-plus ELISA (Roche Applied Science) per the manufacturer's directions. All experiments were done in triplicate and repeated at least twice. Apoptosis index is defined as the ratio of experimental condition OD405 nm: control (media alone) OD405 nm.
# Primary normal human lung fibroblasts (Clonetics, Cambrex Bioscience, Rockland, Me.), primary distal lung human epithelial cells (Clonetics) or A549 (American Type Culture Collection, Manassas, Va.) were seeded in a 96-well tissue culture plate (2×10^4 cells/well) overnight and serum-starved for 24 hours. […] After 48 hours, apoptosis was measured. To prevent detached cells from being aspirated, plates were centrifuged at 200×g for 10 minutes, and apoptosis was measured using the Cell Death Detection ELISA-plus System (Roche Applied Science, Penzberg, Germany), which detects cytosolic histone-complexed DNA fragments. […]
# IGF-1R = target: T1, IGF-1R (Mus musculus, UniProt Q60751); experiment: IGF-1R expression in tissues after systemic A12 (IHC, Western blot); type: in vivo, mice
# T1 construct: Western blot analysis for IGF-1R on lungs and spleen lysates at day 14 post-bleomycin; from tissue; host or cells: mouse lung, spleen, kidney
# Experimental: ICR male mice are anesthetized under pentobarbital (60 mg/kg, i.v.) anesthesia, the cervical region is shaved and the skin is incised for about 4 mm from under the larynx region along the median line. Next, the muscle layer covering upper trachea is peeled off to expose the trachea. Using a micro-syringe, physiological saline or bleomycin hydrochloride (0.03 mg/animal, manufactured by Nippon Kayaku) is administered tracheally (50 μl/animal) from the tracheal smooth muscle region between cricoid cartilage. After the administration, the incised region is closed and antibiotics are administered into the thigh intramuscularly in order to prevent infection. IGF-1R inhibitor, e.g., antibody to IGF-1 receptor (A12). The A12 antibody was administered intraperitoneally at the time of bleomycin administration and subsequently 2-3× per week at a dose of 40 mg/kg (initial experiments involved dosing 3× per week, and later experiments dosed 2× per week; results were the same). […] Controls included bleomycin-treated animals receiving saline injection in place of A12 antibody. […] Lung hydroxyproline content is measured as a measure of fibrosis. Changes in lung tissue histology are also monitored. […] Bronchoalveolar lavage fluid (BALF) total cell count was determined by trypan blue exclusion and cell differential was determined on Diff quick (Dade Behring Ag, Düdingen, Switzerland) stained cytospins. […]
# T1 sequence (Q60751 31-1373): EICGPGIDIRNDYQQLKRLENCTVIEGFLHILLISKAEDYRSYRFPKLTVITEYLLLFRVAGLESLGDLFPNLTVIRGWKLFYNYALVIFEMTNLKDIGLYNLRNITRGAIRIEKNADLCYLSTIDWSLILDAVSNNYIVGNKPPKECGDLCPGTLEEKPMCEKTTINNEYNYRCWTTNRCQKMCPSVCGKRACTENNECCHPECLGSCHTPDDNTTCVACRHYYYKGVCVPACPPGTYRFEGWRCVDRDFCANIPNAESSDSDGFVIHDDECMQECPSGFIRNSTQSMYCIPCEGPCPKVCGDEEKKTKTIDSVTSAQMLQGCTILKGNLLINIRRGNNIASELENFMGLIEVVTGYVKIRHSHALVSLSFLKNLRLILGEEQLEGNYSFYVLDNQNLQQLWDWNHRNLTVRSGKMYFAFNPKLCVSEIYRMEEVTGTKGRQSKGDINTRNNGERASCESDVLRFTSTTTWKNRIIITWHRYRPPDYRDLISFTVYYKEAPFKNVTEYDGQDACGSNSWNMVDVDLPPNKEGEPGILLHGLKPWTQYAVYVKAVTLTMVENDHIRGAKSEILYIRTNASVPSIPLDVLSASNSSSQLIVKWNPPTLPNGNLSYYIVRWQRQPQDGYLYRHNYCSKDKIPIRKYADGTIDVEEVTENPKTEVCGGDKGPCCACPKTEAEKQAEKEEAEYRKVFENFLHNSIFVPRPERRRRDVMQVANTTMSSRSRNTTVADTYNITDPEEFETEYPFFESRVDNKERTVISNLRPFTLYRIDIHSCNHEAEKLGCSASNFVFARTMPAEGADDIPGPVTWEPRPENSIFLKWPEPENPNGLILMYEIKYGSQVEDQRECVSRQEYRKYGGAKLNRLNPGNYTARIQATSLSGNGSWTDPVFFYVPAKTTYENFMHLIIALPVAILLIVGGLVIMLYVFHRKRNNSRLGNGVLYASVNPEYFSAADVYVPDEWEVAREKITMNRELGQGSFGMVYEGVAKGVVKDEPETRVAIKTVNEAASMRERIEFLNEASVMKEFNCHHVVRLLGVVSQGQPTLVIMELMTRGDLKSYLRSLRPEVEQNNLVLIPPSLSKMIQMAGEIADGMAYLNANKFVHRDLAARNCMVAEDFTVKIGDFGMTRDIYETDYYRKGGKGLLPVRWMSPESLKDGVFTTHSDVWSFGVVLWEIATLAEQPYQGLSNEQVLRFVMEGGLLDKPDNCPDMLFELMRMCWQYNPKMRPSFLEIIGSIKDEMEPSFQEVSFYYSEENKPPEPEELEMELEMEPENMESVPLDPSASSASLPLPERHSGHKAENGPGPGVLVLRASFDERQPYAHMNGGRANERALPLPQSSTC
substance,measurement,setting,value
"A12: Function blocking antibody to the human type 1 IGF receptor, gift from ImClone Systems",Fas-induced apoptosis of epithelial cells,epithelial cells (A549),did not alter Fas-induced apoptosis
same,IGF-1R expression in lungs,"IGF-1R; day 7 post-bleomycin, vs saline",marked decrease in IGF-1R expression; also recorded: decreased IGF-1R expression
same,IGF-1R in the kidney (Western blotting),IGF-1R; systemic effect of antibody,down-regulation of IGF-1R in the kidney
